Data published in US9708383 (Novo Nordisk, dated 2017).
*1 amine or outer side, *2 acyl side, *3 side chain or, on linkers, in order; H or OH if unused. Where no end group is shown, it is not given here. Side-chain parts run from the residue outwards. [ ]: non-standard residue; d: D form. The star is where a group is joined. Decanoyl(10-(4-HOOC-PhO)) = O=C(O)c1ccc(OCCCCCCCCCC(=O)*)cc1; C16 diacid = O=C(O)CCCCCCCCCCCCCCC(=O)*; γGlu = O=C(O)[C@H](CCC(=O)[*:2])N[*:1]; Desaminohistidyl = O=C(CCc1c[nH]cn1)*; C12 diacid = O=C(O)CCCCCCCCCCC(=O)*; 13‑carboxytridecanoyl = C14 diacid; Butanoyl(4-Ph) = O=C(CCCc1ccccc1)*; 12Ado = NCCCCCCCCCCCC(=O)O; AEEA = NCCOCCOCC(=O)O; Aib = CC(C)(N)C(=O)O; Aoc = NCCCCCCCC(=O)O

biological target: T1, human GLP-1 receptor (human, UniProt P43220 24-463); assay: SPA, 2.0% vs 0.005% HSA
T1 construct: whole, on cells; Used as purified membranes of the transfected hamster cells, not whole cells; also called hGLP-1

Binder | ratio IC50 high HSA/IC50 low HSA
H[Aib]EGTFTSDVSK([AEEA-AEEA-γGlu-C16 diacid])YLEEQAAK([AEEA-AEEA-γGlu-C16 diacid])EFIAWLVRG [GLP-1 derivative of Example 138: [Aib8,Lys18,Glu22,Arg34]-GLP-1-(7-35)-peptide] | > 1
H[Aib]EGTFTSDVSK([AEEA-AEEA-γGlu-13‑carboxytridecanoyl])YLEEQAAREFIK([AEEA-AEEA-γGlu-13‑carboxytridecanoyl])WLVRG [GLP-1 derivative of Example 83: [Aib8,Lys18,Glu22,Arg26,Lys30,Arg34]-GLP-1-(7-35)-peptide] | > 1
H[Aib]EGTFTSDVSK([AEEA-AEEA-γGlu-13‑carboxytridecanoyl])YLEGQAAHEFIK([AEEA-AEEA-γGlu-13‑carboxytridecanoyl])WLVRG [GLP-1 derivative of Example 81: [Aib8,Lys18,His26,Lys30,Arg34]-GLP-1-(7-35)-peptide] | > 1
[Desaminohistidyl]AEGTFTSDVSK([AEEA-AEEA-γGlu-C12 diacid])YLEEQAVREFIAK([AEEA-AEEA-γGlu-C12 diacid])LVG [GLP-1 derivative of Example 13: [Imp7,Lys18,Glu22,Val25,Arg26,Lys31,Gly34]-GLP-1-(7-34)-peptide] | > 1
H[Aib]EGTFTSDVSK([AEEA-AEEA-γGlu-4‑(4-nitrophenyl)butanoyl])YLEEQAAK([AEEA-AEEA-γGlu-4‑(4-nitrophenyl)butanoyl])EFIAWLVQGRG [GLP-1 derivative of Example 122: [Aib8,Lys18,Glu22,Gln34]-GLP-1-(7-37)-peptide] | > 1
H[Aib]EGTFTSDVSK([AEEA-AEEA-γGlu-12Ado-γGlu-Butanoyl(4-Ph)])YLEEQAAK([AEEA-AEEA-γGlu-12Ado-γGlu-Butanoyl(4-Ph)])EFIAWLVQGRG [GLP-1 derivative of Example 113: [Aib8,Lys18,Glu22,Gln34]-GLP-1-(7-37)-peptide] | > 1
[Desaminohistidyl]AEGTFTSDVSK([AEEA-AEEA-γGlu-Decanoyl(10-(4-HOOC-PhO))])YLEEQAAK([AEEA-AEEA-γGlu-Decanoyl(10-(4-HOOC-PhO))])EFIAWLVQGRG [GLP-1 derivative of Example 136: [Imp7,Lys18,Glu22,Gln34]-GLP-1-(7-37)-peptide] | > 1
[Desaminohistidyl]AEGTFTSDVSK([AEEA-AEEA-γGlu-Decanoyl(10-(4-HOOC-PhO))])YLEEQAAREFIAWLVRGRK([AEEA-AEEA-γGlu-Decanoyl(10-(4-HOOC-PhO))]) [GLP-1 derivative of Example 4: [Imp7,Lys18,Glu22,Arg26,Arg34,Lys37]-GLP-1-(7-37)-peptide] | > 1
[Desaminohistidyl]AEGTFTSDVSK([AEEA-AEEA-γGlu-C16 diacid])YLEEQAARK([AEEA-AEEA-γGlu-C16 diacid])FIAWLVQGRG [GLP-1 derivative of Example 147: [Imp7,Lys18,Glu22,Arg26,Lys27,Gln34]-GLP-1-(7-37)-peptide] | > 1
H[Aib]EGTFTSDVSK([AEEA-AEEA-γGlu-Aoc-γGlu-Butanoyl(4-Ph)])YLEEQAAK([AEEA-AEEA-γGlu-Aoc-γGlu-Butanoyl(4-Ph)])EFIAWLVQGRG [GLP-1 derivative of Example 109: [Aib8,Lys18,Glu22,Gln34]-GLP-1-(7-37)-peptide] | > 1
H[Aib]EGTFTSDVSK([AEEA-AEEA-γGlu-12Ado-γGlu-2‑phenylacetyl])YLEEQAAK([AEEA-AEEA-γGlu-12Ado-γGlu-2‑phenylacetyl])EFIAWLVQGRG [GLP-1 derivative of Example 128: [Aib8,Lys18,Glu22,Gln34]-GLP-1-(7-37)-peptide] | > 1
H[Aib]EGTFTSDVSK([AEEA-AEEA-γGlu-Decanoyl(10-(4-HOOC-PhO))])YLEEQAAK([AEEA-AEEA-γGlu-Decanoyl(10-(4-HOOC-PhO))])EFIAWLVRG [GLP-1 derivative of Example 140: [Aib8,Lys18,Glu22,Arg34]-GLP-1-(7-35)-peptide] | > 1
HAEGTFTSDVSK([AEEA-AEEA-γGlu-C12 diacid])YLEEQAVREFIAK([AEEA-AEEA-γGlu-C12 diacid])LVG [GLP-1 derivative of Example 11: [Lys18,Glu22,Val25,Arg26,Lys31,Gly34]-GLP-1-(7-34)-peptide] | > 1

biological target: T1, human GLP-1 receptor; assay: SPA, displacement of 125I-GLP-1(7-36)NH2, 0.005% HSA

Binder | IC50 [nM]
H[Aib]EGTFTSDVSK([AEEA-AEEA-γGlu-C16 diacid])YLEEQAAK([AEEA-AEEA-γGlu-C16 diacid])EFIAWLVRG [GLP-1 derivative of Example 138: [Aib8,Lys18,Glu22,Arg34]-GLP-1-(7-35)-peptide] | < 1000
H[Aib]EGTFTSDVSK([AEEA-AEEA-γGlu-13‑carboxytridecanoyl])YLEEQAAREFIK([AEEA-AEEA-γGlu-13‑carboxytridecanoyl])WLVRG [GLP-1 derivative of Example 83: [Aib8,Lys18,Glu22,Arg26,Lys30,Arg34]-GLP-1-(7-35)-peptide] | < 1000
H[Aib]EGTFTSDVSK([AEEA-AEEA-γGlu-13‑carboxytridecanoyl])YLEGQAAHEFIK([AEEA-AEEA-γGlu-13‑carboxytridecanoyl])WLVRG [GLP-1 derivative of Example 81: [Aib8,Lys18,His26,Lys30,Arg34]-GLP-1-(7-35)-peptide] | < 1000
[Desaminohistidyl]AEGTFTSDVSK([AEEA-AEEA-γGlu-C12 diacid])YLEEQAVREFIAK([AEEA-AEEA-γGlu-C12 diacid])LVG [GLP-1 derivative of Example 13: [Imp7,Lys18,Glu22,Val25,Arg26,Lys31,Gly34]-GLP-1-(7-34)-peptide] | < 1000
H[Aib]EGTFTSDVSK([AEEA-AEEA-γGlu-4‑(4-nitrophenyl)butanoyl])YLEEQAAK([AEEA-AEEA-γGlu-4‑(4-nitrophenyl)butanoyl])EFIAWLVQGRG [GLP-1 derivative of Example 122: [Aib8,Lys18,Glu22,Gln34]-GLP-1-(7-37)-peptide] | < 1000
H[Aib]EGTFTSDVSK([AEEA-AEEA-γGlu-12Ado-γGlu-Butanoyl(4-Ph)])YLEEQAAK([AEEA-AEEA-γGlu-12Ado-γGlu-Butanoyl(4-Ph)])EFIAWLVQGRG [GLP-1 derivative of Example 113: [Aib8,Lys18,Glu22,Gln34]-GLP-1-(7-37)-peptide] | < 1000
[Desaminohistidyl]AEGTFTSDVSK([AEEA-AEEA-γGlu-Decanoyl(10-(4-HOOC-PhO))])YLEEQAAK([AEEA-AEEA-γGlu-Decanoyl(10-(4-HOOC-PhO))])EFIAWLVQGRG [GLP-1 derivative of Example 136: [Imp7,Lys18,Glu22,Gln34]-GLP-1-(7-37)-peptide] | < 1000
[Desaminohistidyl]AEGTFTSDVSK([AEEA-AEEA-γGlu-Decanoyl(10-(4-HOOC-PhO))])YLEEQAAREFIAWLVRGRK([AEEA-AEEA-γGlu-Decanoyl(10-(4-HOOC-PhO))]) [GLP-1 derivative of Example 4: [Imp7,Lys18,Glu22,Arg26,Arg34,Lys37]-GLP-1-(7-37)-peptide] | < 1000
[Desaminohistidyl]AEGTFTSDVSK([AEEA-AEEA-γGlu-C16 diacid])YLEEQAARK([AEEA-AEEA-γGlu-C16 diacid])FIAWLVQGRG [GLP-1 derivative of Example 147: [Imp7,Lys18,Glu22,Arg26,Lys27,Gln34]-GLP-1-(7-37)-peptide] | < 1000
H[Aib]EGTFTSDVSK([AEEA-AEEA-γGlu-Aoc-γGlu-Butanoyl(4-Ph)])YLEEQAAK([AEEA-AEEA-γGlu-Aoc-γGlu-Butanoyl(4-Ph)])EFIAWLVQGRG [GLP-1 derivative of Example 109: [Aib8,Lys18,Glu22,Gln34]-GLP-1-(7-37)-peptide] | < 1000
H[Aib]EGTFTSDVSK([AEEA-AEEA-γGlu-12Ado-γGlu-2‑phenylacetyl])YLEEQAAK([AEEA-AEEA-γGlu-12Ado-γGlu-2‑phenylacetyl])EFIAWLVQGRG [GLP-1 derivative of Example 128: [Aib8,Lys18,Glu22,Gln34]-GLP-1-(7-37)-peptide] | < 1000
H[Aib]EGTFTSDVSK([AEEA-AEEA-γGlu-Decanoyl(10-(4-HOOC-PhO))])YLEEQAAK([AEEA-AEEA-γGlu-Decanoyl(10-(4-HOOC-PhO))])EFIAWLVRG [GLP-1 derivative of Example 140: [Aib8,Lys18,Glu22,Arg34]-GLP-1-(7-35)-peptide] | < 1000
HAEGTFTSDVSK([AEEA-AEEA-γGlu-C12 diacid])YLEEQAVREFIAK([AEEA-AEEA-γGlu-C12 diacid])LVG [GLP-1 derivative of Example 11: [Lys18,Glu22,Val25,Arg26,Lys31,Gly34]-GLP-1-(7-34)-peptide] | < 1000
